Among the data in patent US20220072087A1, “SPECIFIC COMBINATION THERAPY FOR TREATMENT OF PANCREATIC CANCER” (BioLineRx Ltd., priority 2019, published 2022) are solubility, effect on viability and IC50 values, retold here.

The IC50 is the concentration at which inhibition is half-maximal.

Data set [1] is described as follows: solubility of BL-8040 powder. In kind it is physicochemical.
Another data set has as its system human keratinocytes. To be noted: cited from earlier work.
Data set [2] relates to normal human hematopoietic cells. To be noted: cited from earlier work.
For a further data set, the target named is CXCR4 (Homo sapiens, UniProt P61073). The conditions noted are these: read-out: IC50 (binds to CXCR4 with high affinity); cited from earlier work.

Bridge positions count the residues as written; N and C are the ends. Square brackets hold non-standard residues; d marks the D form. * marks the point of attachment. 2Nal = N[C@@H](Cc1ccc2ccccc2c1)C(=O)O; Benzoyl(4-F) = O=C(c1ccc(F)cc1)*; Cit = NC(=O)NCCC[C@H](N)C(=O)O

Chain of CXCR4 (P61073 whole entry, species assumed): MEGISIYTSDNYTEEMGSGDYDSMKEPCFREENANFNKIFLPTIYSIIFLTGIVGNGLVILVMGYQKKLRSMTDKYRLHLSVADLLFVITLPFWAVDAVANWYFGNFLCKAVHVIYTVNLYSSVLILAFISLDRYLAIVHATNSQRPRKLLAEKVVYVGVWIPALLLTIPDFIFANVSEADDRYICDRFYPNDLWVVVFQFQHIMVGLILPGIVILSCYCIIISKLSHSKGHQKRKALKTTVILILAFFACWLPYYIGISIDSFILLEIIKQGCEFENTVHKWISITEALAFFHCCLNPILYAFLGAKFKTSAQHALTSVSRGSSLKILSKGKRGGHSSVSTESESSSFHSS

Take “BL-8040 ({Benzoyl(4-F)}-RR[2Nal]CY[Cit]K[dK]PYR[Cit]CR-NH2; disulfide 4-13 (inferred))”: the solubility result in data set [1] (in 0.45% Sodium Chloride (half normal saline)) and in data set [1] (in water) was “freely soluble” throughout. The effect on viability result (with human keratinocytes; in data set [2]) was “did not affect the viability” throughout. Also, the IC50 in the data set with CXCR4 was 0.54 to 4.5 nM.
